# Biological target: Gallus gallus NET1ΔC loop cd (R374A H375A K395A H399A R400A K401A) (Gallus gallus, UniProt Q90922 26-458, R374A | H375A | K395A | H399A | R400A | K401A)
# Test: ELISA; glypican-3 coated (0.5 µg/well); soluble NET1ΔC alone (0.5–500 nM, or 500 nM pre-incubated with HO-dp20 for competition); detection with polyclonal NET1 antibody
# Details: both partners purified
binder,measurement,value
"glypican-3 (AF185614 aa 25-557 R357A) (domain or fragment, three extended GAG chains are attached to the core protein, Glypican-3, AF185614 aa 25-557; Heparan sulphate proteoglycan; also called GPC3; source: HEK 293 (sleeping beauty transposon system, BM40 signal peptide), purified (Strep-Tactin)) QPPPPPDATCHQVRSFFQRLQPGLKWVPETPVPGSDLQVCLPKGPTCCSRKMEEKYQLTARLNMEQLLQSASMELKFLIIQNAAVFQEAFEIVVRHAKNYTNAMFKNNYPSLTPQAFEFVGEFFTDVSLYILGSDINVDDMVNELFDSLFPVIYTQMMNPGLPESVLDINECLRGARRDLKVFGSFPKLIMTQVSKSLQVTRIFLQALNLGIEVINTTDHLKFSKDCGRMLTRMWYCSYCQGLMMVKPCGGYCNVVMQGCMAGVVEIDKYWREYILSLEELVNGMYRIYDMENVLLGLFSTIHDSIQYVQKNGGKLTTTIGKLCAHSQQRQYASAYYPEDLFIDKKILKVAHVEHEETLSSRRRELIQKLKSFINFYSALPGYICSHSPVAENDTLCWNGQELVERYSQKAARNGMKNQFNLHELKMKGPEPVVSQIIDKLKHINQLLRTMSVPKGKVLDKSLDEEGLESGDCGDDEDECIGSSGDGMVKVKNQLRFLAELAYDLDVDDAPGNKQHGNQKDNEITTSHSVGNM",binding result,binds

# Reference: paper PMC9984387, “The dynamic nature of netrin-1 and the structural basis for glycosaminoglycan fragment-induced filament formation” (Nature Communications, 2023)
